Laboratory results reported in patent US20230313187A1, “MODIFICATIONS OF MAMMALIAN CELLS USING ARTIFICIAL MICRO-RNA TO ALTER THEIR PROPERTIES AND THE COMPOSITIONS OF THEIR PRODUCTS” (DNA TWOPOINTO INC., priority 2020, published 2023).

Experiments:
[1] = test system: Cricetulus griseus alpha-(1,6)-fucosyl transferase (FUT8) mRNA; assay: Antibody titer and fucosylation with different numbers of amiRNA hairpins in the 3' UTR of the glutamine synthetase selectable marker; type: cell-based; conditions: for antibody titer: weaker (PGK) promoter operably linked to glutamine synthetase, amiRNA in 3' UTR; for antibody fucosylation: weaker (PGK) promoter, amiRNA in GS 3' UTR, natural level around 80-85%
From the text: One- two- or three-hairpin amiRNAs were incorporated into the 3′ UTR of a glutamine synthetase selectable marker on a transposon. The multi-hairpin amiRNA with nucleotide sequence SEQ ID NO: 194 comprised three hairpins as described in Section 6.1.1.1.
These amiRNA sequences were placed to the 3′ of an open reading frame encoding a glutamine synthetase protein (with polypeptide sequence SEQ ID NO: 307) and followed by a human globin polyadenylation sequence. The amiRNA genes were cloned into a transposon vector in which they were operably linked to a Pol II promoter. The transposon further comprised genes encoding an antibody with mature light chain polypeptide sequence SEQ ID NO: 286 and mature heavy chain polypeptide sequence SEQ ID NO: 288. The transposon further comprised a left end comprising a 5′-TTAA-3′ target sequence immediately followed by an ITR with nucleotide sequence SEQ ID NO: 423 (which is an embodiment of SEQ ID NO: 421) and additional nucleotide sequence SEQ ID NO: 417 and a right end comprising nucleotide sequence SEQ ID NO: 419 immediately followed by an ITR with nucleotide sequence SEQ ID NO: 424 (which is an embodiment of SEQ ID NO: 422) immediately followed by a 5′-TTAA-3′ target sequence. The transposon was configured so that the multi-hairpin amiRNA, the glutamine synthetase gene and the genes for both antibody chains, as well as all necessary operably linked control elements were transposable by a corresponding transposase.
Transposons were co-transfected with mRNA encoding transposase with polypeptide sequence SEQ ID NO: 472 into a CHO cell line with no functional glutamine synthetase gene. The pool of transfected cells were grown in the absence of glutamine added to the media until their viability reached 95%. They were then grown in a 14 day fed-batch using Sigma Advanced Fed Batch media. Protein was purified from the culture supernatant using protein A affinity chromatography, reduced with dithiothreitol, and analyzed on an Agilent QTOF mass spectrometer. We integrated the area under the peaks at 50,456 Da (corresponding to the heavy chain modified by G0: the conserved heptasaccharide core composed of 2 N-acetylglucosamine, 3 mannose and 2 other N-acetylglucosamine residues that are β-1,2 linked to α-6 mannose and α-3 mannose, forming two arms) and 50,602 (corresponding to the heavy chain modified by G0F: the conserved heptasaccharide core plus a fucose residue) to calculate the relative proportion of fucosylated and afucosylated antibody.
Table 5. Inhibition of antibody fucosylation with different numbers of amiRNA hairpins. Transposons were constructed as described in Section 6.1.2.1. The SEQ ID NO of the amiRNA gene including the glutamine synthetase ORF and the globin polyA sequence is given in column A. The Pol II promoter shown in column B was operably linked to the amiRNA whose SEQ ID NO is shown in column C. The amiRNA comprised the number of hairpins shown in column D. Following a 14-day fed batch antibody production run, the culture supernatant contained the concentration of antibody shown in column E. The percentage of antibody that was afucosylated is shown in column F, the percentage that was fucosylated is shown in column G. BDL=below detection limit.

[2] = test system: Cricetulus griseus glutamine synthetase mRNA; assay: Growth of CHO cell pools with amiRNA targeted toward glutamine synthetase in the absence of glutamine; type: cell-based; conditions: for VCD: glutamine-free media
From the text: The multi-hairpin amiRNA was cloned into a piggyBac-like transposon to the 3′ of a spacer polynucleotide with nucleotide sequence SEQ ID NO: 280, and operably linked to a PGK promoter with nucleotide sequence SEQ ID NO: 386. The nucleotide sequence of the multi-hairpin amiRNA gene is given as SEQ ID NO: 540. The piggyBac-like transposon further comprised a selectable marker conferring resistance to G418/neomycin with amino acid sequence SEQ ID NO: 296. The piggyBac-like transposon further comprised a target sequence 5′-TTAA-3′ immediately followed by an ITR with nucleotide sequence SEQ ID NO: 448 (which is an embodiment of SEQ ID NO: 564), immediately followed by further transposon end sequences with nucleotide sequence SEQ ID NO: 445. The piggyBac-like transposon further comprised nucleotide sequence SEQ ID NO: 446, immediately followed by a second ITR with nucleotide sequence SEQ ID NO: 449 (which is an embodiment of SEQ ID NO: 447), immediately followed by the target sequence 5′-TTAA-3′. The transposon was configured so that the multi-hairpin amiRNA, the spacer polynucleotide and the gene encoding the selectable marker, as well as all necessary operably linked control elements, were transposable by a corresponding transposase. The full sequence of the transposon comprising the multi-hairpin amiRNA gene and selectable marker is given as SEQ ID NO: 544.
The transposon was co-transfected with mRNA encoding transposase with polypeptide sequence SEQ ID NO: 523 into a CHO cell line with intact glutamine synthetase genes. The pool of transfected cells were grown in the presence of 600 or 1,000 μg/ml G418 plus 5 mM glutamine until their viability reached 95%.
After the transfected cell pools had recovered to >95% viability, we tested their ability to grow in the absence of glutamine. Cells were transferred to Sigma Advanced Fed Batch media lacking glutamine to an initial a density of 0.3×10^6 live cells/ml. The viable cell density was measured at various times after the removal of glutamine. On the fourth day, cells were diluted back to a density of 0.3×10^6 live cells/ml in media lacking glutamine, to ensure that growing cells had sufficient nutrients. […] After this, the viable cell density approximately tripled between dilution on day 4 and day 6 and doubled again between day 6 and day 8. […] The viable cell density then began to fall for both pools transfected with a transposon comprising the multi-hairpin amiRNA with nucleotide sequence SEQ ID NO: 209 at day 6 (Table 7 columns B and C, compare rows 6, 7 and 8). By day 8 the viable cell density had fallen precipitously to less than 0.02×10^6 live cells/ml. There was no difference between the growth of cells transfected with the control transposon or the transposon comprising the multi-hairpin amiRNA with nucleotide sequence SEQ ID NO: 209 in the presence of glutamine: all pools grew well. We conclude that a multi-hairpin amiRNA comprising guide strand sequences complementary to three different sequences within the CHO glutamine synthetase mRNA target (nucleotide sequence SEQ ID NO: 10) can be used to make a CHO cell dependent upon exogenously provided glutamine. The cells in this pool had been selected with neomycin/G418, which allowed growth of cells whose genomes comprised the transposon comprising the multi-hairpin amiRNA. […] By using the multi-hairpin amiRNA gene we were able to produce a pool of cells in which expression of the essential metabolic enzyme glutamine synthetase was inhibited to a level that prevents growth of the cell in greater than 93% of the cells in the pool.
The multi-hairpin amiRNA with nucleotide sequence SEQ ID NO: 209 was also cloned into three other piggyBac-like transposons, also to the 3′ of a spacer polynucleotide with nucleotide sequence SEQ ID NO: 280. In the first transposon the multi-hairpin amiRNA was operably linked to a PGK promoter with nucleotide sequence SEQ ID NO: 385. […]

B1: SEQ ID NO: 197: single hairpin amiRNA, guide SEQ ID NO: 23 complementary to Cricetulus griseus FUT8 mRNA (nucleic acid)
chain: ATCTGATCTTCTGAAGAAAATATATTTCTTTTTATTCATAGCTCTTAACTAGTGGTGATAGCAATGTCAGCAGTGCCTGGAAAAACATCCATTCTCATTCGTGAAGCCACAGATGGAATGAGAATAGATGTTTTTCAAAGTAAGGTTGACCATACTCTACTCTAGAGTTGTGTTTTAATGTATATTAATGTTACTAATGTGTTTTCAGTTTTATTGATAGTCTTTTCAGTATTATTGATAATCTT
antibody titer [1]: 514 mg/L | antibody fucosylation [1]: about 50%

B2: SEQ ID NO: 209: three-hairpin amiRNA, guides SEQ ID NOs 53, 54, 55 complementary to Cricetulus griseus glutamine synthetase mRNA (nucleic acid)
chain: ATCTGATCTTCTGAAGAAAATATATTTCTTTTTATTCATAGCTCTTAACTAGTGGTGATAGCAATGTCAGCAGTGCCTTTGAGTTACAATGAGACAGCTGGTGAAGCCACAGATGCAGCTGTCTCCTTGTAACTCACAAGTAAGGTTGACCATACTCTACTCTAGAGTTGTGTTTTAATGTATATTAATGTTACTAATGTGTTTACTAGTGGTGATAGCAATGTCAGCAGTGCCTTATTCTGACCAATAAAAGCAAGGTGAAGCCACAGATGCTTGCTTTTACTGGTCAGAATCAAGTAAGGTTGACCATACTCTACTCTAGGTTATTTTTAGTATGATTCTGTAAAAATGAATTAATACTAACTAGTGGTGATAGCAATGTCAGCAGTGCCTTTTTACCTGAAGAACTAGCAGCGTGAAGCCACAGATGGCTGCTAGTTATTCAGGTAAACAAGTAAGGTTGACCATACTCTACTCTAGTCAGTTTTATTGATAGTCTTTTCAGTATTATTGATAATCTT
cells in the pool in which glutamine synthetase is inhibited to a level that prevents growth ([2]; G418-selected pool): greater than 93% | dependence on exogenously supplied glutamine ([2]; amiRNA operably linked to a promoter and integrated into the CHO genome, also PGK, EF1, EEF2 promoters in other transposons, listed as 209): completely dependent upon exogenously supplied glutamine | increase in viable cell density ([2]; between day 1 and day 4 without glutamine, pool selected with 600 μg/ml G418): less than 50% | cells still alive ([2]; by day 8 without glutamine): less than 7% | viable cell density ([2]; by day 8 without glutamine, both pools): less than 0.02 ×10^6 live cells/ml | VCD ([2]; 600 ug/ml G418 pool, day 1): 0.45 x 10^6 live cells/ml | VCD ([2]; 600 ug/ml G418 pool, day 4 after dilution): 0.30 x 10^6 live cells/ml | VCD ([2]; 600 ug/ml G418 pool, day 4 before dilution): 0.47 x 10^6 live cells/ml | VCD ([2]; 600 ug/ml G418 pool, day 6): 0.21 x 10^6 live cells/ml | VCD ([2]; 600 ug/ml G418 pool, day 8): 0.01 x 10^6 live cells/ml | VCD ([2]; 1000 ug/ml G418 pool, day 1): 0.31 x 10^6 live cells/ml | VCD ([2]; 1000 ug/ml G418 pool, day 4 after dilution): 0.30 x 10^6 live cells/ml | VCD ([2]; 1000 ug/ml G418 pool, day 4 before dilution): 0.30 x 10^6 live cells/ml | VCD ([2]; 1000 ug/ml G418 pool, day 6): 0.26 x 10^6 live cells/ml | VCD ([2]; 1000 ug/ml G418 pool, day 8): 0.02 x 10^6 live cells/ml | VCD ([2]; pool selected with 600 ug/ml G418, day 0 (inoculation)): 0.30 x 10^6 live cells/ml | VCD ([2]; pool selected with 1000 ug/ml G418, day 0 (inoculation)): 0.30 x 10^6 live cells/ml | increase in viable cell density ([2]; to day 4 without glutamine, pool selected with 1,000 μg/ml G418): failed to increase their viable cell density at all

B3: SEQ ID NO: 196: two-hairpin amiRNA, guides SEQ ID NOs 23 and 24 complementary to Cricetulus griseus FUT8 mRNA (nucleic acid)
chain: ATCTGATCTTCTGAAGAAAATATATTTCTTTTTATTCATAGCTCTTAACTAGTGGTGATAGCAATGTCAGCAGTGCCTGGAAAAACATCCATTCTCATTCGTGAAGCCACAGATGGAATGAGAATAGATGTTTTTCAAAGTAAGGTTGACCATACTCTACTCTAGTTATATTCTTTAGGCACGAATGTGTGTTTAAAAAAAATAAAAACTAGTGGTGATAGCAATGTCAGCAGTGCCTTTAAATTACATAATGTGGCAGTGTGAAGCCACAGATGACTGCCACATCATGTAATTTACAAGTAAGGTTGACCATACTCTACTCTAGAGTTGTGTTTTAATGTATATTAATGTTACTAATGTGTTTTCAGTTTTATTGATAGTCTTTTCAGTATTATTGATAATCTT
antibody titer [1]: 770 mg/L | antibody fucosylation [1]: 10%
